Test results: the supplement of paper PMC5998384

What was measured:
[1] = system: HeLa Kyoto; experiment: thermal stability score vs G1/S (z-score of summed log2 fold changes over temperatures); higher = more thermally stable than in G1/S
[2] = system: HeLa Kyoto; experiment: melting temperature (median over replicates), in situ; higher = more thermally stable
[3] = system: HeLa Kyoto; experiment: solubility change mitosis vs G1/S (difference of NP-40 vs SDS log2 ratios) (log2 ratio difference); higher = more soluble in mitosis
[4] = system: HeLa Kyoto; experiment: solubility in G1/S (NP-40 vs SDS abundance) (log2 ratio); higher = more soluble; settings: cell cycle stage: G1/S
[5] = cell cycle stage: early G1 (4.5 h after nocodazole release)
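Wherever melting temperature (median over replicates), in situ is given: HeLa Kyoto cells synchronized by double thymidine or nocodazole block, proteins quantified by TMT10plex mass spectrometry, three independent biological replicates.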
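Wherever solubility change mitosis vs G1/S (difference of NP-40 vs SDS log2 ratios) is given: synchronized HeLa Kyoto cells (double thymidine block for G1/S, nocodazole release for mitosis), protein amounts in NP-40 versus SDS lysates quantified by mass spectrometry, three biological replicates.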
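Wherever solubility in G1/S (NP-40 vs SDS abundance) is given: HeLa Kyoto cells arrested at G1/S by double thymidine block, proteins quantified by TMT10plex mass spectrometry in mild NP-40 versus SDS extracts, three biological replicates.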
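Wherever thermal stability score vs G1/S (z-score of summed log2 fold changes over temperatures) is given: synchronized HeLa Kyoto cells, proteins quantified by TMT10plex mass spectrometry, three biological replicates, mitosis taken 0.5 h after nocodazole release, G1/S directly after double thymidine block.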

Sequence | thermal stability score [1, 5] | thermal stability score ([1]; cell cycle stage: mitosis) | melting temperature ([2]; cell cycle stage: G1/S) [°C] | melting temperature ([2]; cell cycle stage: mitosis) [°C] | solubility change mitosis (log2) [3] | solubility in G1/S (log2) [4]
MADEDLIFRLEGVDGGQSPRAGHDGDSDGDSDDEEGYFICPITDDPSSNQNVNSKVNKYYSNLTKSERYSSSGSPANSFHFKEAWKHAIQKAKHMPDPWAEFHLEDIATERATRHRYNAVTGEWLDDEVLIKMASQPFGRGAMRECFRTKKLSNFLHAQQWKGASNYVAKRYIEPVDRDVYFEDVRLQMEAKLWGEEYNRHKPPKQVDIMQMCIIELKDRPGKPLFHLEHYIEGKYIKYNSNSGFVRDDNIRLTPQAFSHFTFERSGHQLIVVDIQGVGDLYTDPQIHTETGTDFGDGNLGVRGMALFFYSHACNRICESMGLAPFDLSPRERDAVNQNTKLLQSAKTILRGTEEKCGSPQVRTLSGSRPPLLRPLSENSGDENMSDVTFDSLPSSPSSATPHSQKLDHLHWPVFSDLDNMASRDHDHLDNHRESENSGDSGYPSEKRGELDDPEPREHGHSYSNRKYESDEDSLGSSGRVCVEKWNLLNSSRLHLPRASAVALEVQRLNALDLEKKIGKSILGKVHLAMVRYHEGGRFCEKGEEWDQESAVFHLEHAANLGELEAIVGLGLMYSQLPHHILADVSLKETEENKTKGFDYLLKAAEAGDRQSMILVARAFDSGQNLSPDRCQDWLEALHWYNTALEMTDCDEGGEYDGMQDEPRYMMLAREAEMLFTGGYGLEKDPQRSGDLYTQAAEAAMEAMKGRLANQYYQKAEEAWAQMEE [EEF2K] | 0.84 | 1.21 | 47.7 | 48.4 | -0.158 | 0.0328
MSESSSKSSQPLASKQEKDGTEKRGRGRPRKQPPVSPGTALVGSQKEPSEVPTPKRPRGRPKGSKNKGAAKTRKTTTTPGRKPRGRPKKLEKEEEEGISQESSEEEQ [HMGA1] | -6.52 | -8.11 | – | 57.6 | 1.62 | 0.583
MSTADALDDENTFKILVATDIHLGFMEKDAVRGNDTFVTLDEILRLAQENEVDFILLGGDLFHENKPSRKTLHTCLELLRKYCMGDRPVQFEILSDQSVNFGFSKFPWVNYQDGNLNISIPVFSIHGNHDDPTGADALCALDILSCAGFVNHFGRSMSVEKIDISPVLLQKGSTKIALYGLGSIPDERLYRMFVNKKVTMLRPKEDENSWFNLFVIHQNRSKHGSTNFIPEQFLDDFIDLVIWGHEHECKIAPTKNEQQLFYISQPGSSVVTSLSPGEAVKKHVGLLRIKGRKMNMHKIPLHTVRQFFMEDIVLANHPDIFNPDNPKVTQAIQSFCLEKIEEMLENAERERLGNSHQPEKPLVRLRVDYSGGFEPFSVLRFSQKFVDRVANPKDIIHFFRHREQKEKTGEEINFGKLITKPSEGTTLRVEDLVKQYFQTAEKNVQLSLLTERGMGEAVQEFVDKEEKDAIEELVKYQLEKTQRFLKERHIDALEDKIDEEVRRFRETRQKNTNEEDDEVREAMTRARALRSQSEESASAFSADDLMSIDLAEQMANDSDDSISAATNKGRGRGRGRRGGRGQNSASRGGSQRGRADTGLETSTRSRNSKTAVSASRNMSIIDAFKSTRQQPSRNVTTKNYSEVIEVDESDVEEDIFPTTSKTDQRWSSTSSSKIMSQSQVSKGVDFESSEDDDDDPFMNTSSLRRNRR [MRE11A] | -0.294 | -0.527 | 51.6 | 51.2 | -0.164 | -0.0431
MGLAGVCALRRSAGYILVGGAGGQSAAAAARRYSEGEWASGGVRSFSRAAAAMAPIKVGDAIPAVEVFEGEPGNKVNLAELFKGKKGVLFGVPGAFTPGCSKTHLPGFVEQAEALKAKGVQVVACLSVNDAFVTGEWGRAHKAEGKVRLLADPTGAFGKETDLLLDDSLVSIFGNRRLKRFSMVVQDGIVKALNVEPDGTGLTCSLAPNIISQL [PRDX5] | -1.13 | -2.67 | 55.9 | 55.9 | 0.124 | 0.582
MSSRKQGSQPRGQQSAEEENFKKPTRSNMQRSKMRGASSGKKTAGPQQKNLEPALPGRWGGRSAENPPSGSVRKTRKNKQKTPGNGDGGSTSEAPQPPRKKRARADPTVESEEAFKNRMEVKVKIPEELKPWLVEDWDLVTRQKQLFQLPAKKNVDAILEEYANCKKSQGNVDNKEYAVNEVVAGIKEYFNVMLGTQLLYKFERPQYAEILLAHPDAPMSQVYGAPHLLRLFVRIGAMLAYTPLDEKSLALLLGYLHDFLKYLAKNSASLFTASDYKVASAEYHRKAL [MORF4L2] | 0.948 | 0.257 | 52.9 | 52.1 | 0.484 | 0.0399
MAAAAMAAAAGGGAGAARSLSRFRGCLAGALLGDCVGSFYEAHDTVDLTSVLRHVQSLEPDPGTPGSERTEALYYTDDTAMARALVQSLLAKEAFDEVDMAHRFAQEYKKDPDRGYGAGVVTVFKKLLNPKCRDVFEPARAQFNGKGSYGNGGAMRVAGISLAYSSVQDVQKFARLSAQLTHASSLGYNGAILQALAVHLALQGESSSEHFLKQLLGHMEDLEGDAQSVLDARELGMEERPYSSRLKKIGELLDQASVTREEVVSELGNGIAAFESVPTAIYCFLRCMEPDPEIPSAFNSLQRTLIYSISLGGDTDTIATMAGAIAGAYYGMDQVPESWQQSCEGYEETDILAQSLHRVFQKS [ADPRHL2] | 0.365 | -0.404 | 53.3 | 52.5 | -0.105 | 0.408
MLGFITRPPHRFLSLLCPGLRIPQLSVLCAQPRPRAMAISSSSCELPLVAVCQVTSTPDKQQNFKTCAELVREAARLGACLAFLPEAFDFIARDPAETLHLSEPLGGKLLEEYTQLARECGLWLSLGGFHERGQDWEQTQKIYNCHVLLNSKGAVVATYRKTHLCDVEIPGQGPMCESNSTMPGPSLESPVSTPAGKIGLAVCYDMRFPELSLALAQAGAEILTYPSAFGSITGPAHWEVLLRARAIETQCYVVAAAQCGRHHEKRASYGHSMVVDPWGTVVARCSEGPGLCLARIDLNYLRQLRRHLPVFQHRRPDLYGNLGHPLS [NIT1] | -1.82 | -2.71 | 54.7 | 55.1 | -0.133 | 0.248
